Assay results published in the supplement of paper PMC10201428.
± gives the standard deviation of the averaged measurements.

B1: library; a variant is named by its letters at N, in order (parent)
chain: ACATTTGTTGATACAACCATAAAATGATAATTACACCCATAAATTGATAATTATCACACCCANNNNNNNNNNNNNNCTCTGATCATAGTCAGACCAACATTGCTACGACCCGTATTCGCACCGACAC

Columns and labels:
[1] = variants of: B1; test: relative integration efficiency (T-RL orientation) vs wild-type transposon end (log2 (normalized fold change)); transposon end mutated: right end (5 bp flank + 75 bp right end); higher = more efficient transposition; settings: with VchCAST RNA-guided transposition machinery (E. coli BL21(DE3) host, lacZ target)
Description: (§1)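 Pooled, barcoded VchCAST (Tn6677) mini-transposon donor libraries; each variable transposon-end sequence sits in a fixed pDonor mini-transposon context (10-bp barcode and cargo not included). Left- or right-end libraries were co-transformed with pEffector (TniQ-Cascade, TnsABC, lacZ crRNA, T7, 0.1 mM IPTG) into E. coli BL21(DE3) and grown 18 h at 37 C. T-LR and T-RL junction amplicons were sequenced; output/input barcode fold change was normalised to the mean of four wild-type barcodes and log2-transformed. Two biological replicates; zero-count/undetected variants carry floor values (-10 / -15), censored here. Barcode uncoupling by PCR recombination adds noise.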

[2] = variants of: B1; test: relative integration efficiency (T-LR orientation) vs wild-type transposon end (log2 (normalized fold change)); transposon end mutated: right end (5 bp flank + 75 bp right end); higher = more efficient transposition; settings: with VchCAST RNA-guided transposition machinery (E. coli BL21(DE3) host, lacZ target)
Description: as §1

Variant | relative integration efficiency (log2) [1] | relative integration efficiency (log2) [2]
ATTTAACTATAACG T6G | -6.3 ± 0.14 | -5.38 ± 0.28
TAAATTGATATTGC T9A | -0.0594 ± 0.085 | -0.234 ± 0.3
TAAATTGATATTGC T9C | 0.234 ± 0.012 | 0.331 ± 0.42
TAAATTGATATTGC T9G | 0.104 ± 0.038 | 0.0503 ± 0.46
TATTTTGATATTGC | -0.123 ± 0.052 | 0.19 ± 0.27
ATTTAACTATAACG A56T | -0.909 ± 0.39 | 2.57 ± 0.2
ATTTAACTATAACG A56C | -1.09 ± 0.21 | 2.32 ± 0.19
TAAATTTATATTGC | -0.361 ± 0.18 | 1.7 ± 0.14
TAAATTGATATTGG C77G | -0.0309 ± 0.041 | -0.0151 ± 0.56
ATTTAACTATAACG T45A | -1.14 ± 0.22 | 1.93 ± 0.065
ATTTAACTATAACG T45G | -1.16 ± 0.28 | 1.56 ± 0.031
TAACTTGATATTGC | 0.11 ± 0.027 | 0.325 ± 0.16
TAAATTGCTATTGC | -0.207 ± 0.014 | 0.841 ± 0.12
TAAATTGATCGTGC | -0.217 ± 0.047 | 0.973 ± 0.038
TACATTGATATTGC | -0.674 ± 0.11 | 1.79 ± 0.13
TTTATTGATATTGC | 0.0323 ± 0.048 | 0.91 ± 0.071
TAAATTGATATTGC T20A | -0.299 ± 0.1 | -0.359 ± 0.083
TAAATTGATATTGC T20G | -1.34 ± 0.03 | -1.12 ± 0.28
TAAATTGATATTGC T20C | -0.448 ± 0.19 | -0.577 ± 0.33
TAAATTGATATTGC T80A | 0.0921 ± 0.03 | 0.072 ± 0.48

Variant | relative integration efficiency (log2) [1] | relative integration efficiency (log2) [2]
TAAATTGATATTGC T80G | 0.183 ± 0.047 | 0.0082 ± 0.15
TAAATTGATATTGC T80C | -0.0687 ± 0.062 | -0.0985 ± 0.41
ATTTAACTATAACG A33C | -1.12 ± 0.26 | 2.34 ± 0.17
ATTTAACTATAACG A33G | -0.971 ± 0.32 | 2.42 ± 0.046
TACCTTGATATTGC | 1.35 ± 0.074 | 3.9016 ± 0.0014
TAAATTGATATTGC T40A | -0.0544 ± 0.14 | -0.355 ± 0.17
TAAATTGATATTGC T40G | -0.896 ± 0.09 | -1.24 ± 0.71
TAAATTGATATTGC T40C | -0.609 ± 0.017 | -0.859 ± 0.091
ATTTAACTATAACG G26A | -1.27 ± 0.28 | 2.69 ± 0.084
ATTTAACTATAACG G26C | -2.84 ± 0.47 | 1.17 ± 0.16
ATTTAACTATAACG G26T | -1.75 ± 0.32 | 2.24 ± 0.073
ATTTAACTATAACG C36G | -1.16 ± 0.22 | 1.95 ± 0.11
ATTTAACTATAACG C36A | -0.593 ± 0.052 | 2.4 ± 0.13
TAAATTGATATTGC T28A | -0.215 ± 0.21 | 0.152 ± 0.12
TAAATTGATATTGC T28C | -0.278 ± 0.096 | -0.203 ± 0.2
TAAATTGATATTGC T28G | -0.476 ± 0.036 | 0.189 ± 0.11
ATTTAACTATAACG A22C | -1.71 ± 0.34 | 1.21 ± 0.057
ATTTAACTATAACG A22G | -1.42 ± 0.27 | 1.36 ± 0.45
ATTTAACTATAACG A22T | -0.696 ± 0.12 | 2.5 ± 0.18
GCCATTGATATTGC A62C | -0.86 ± 0.27 | 2.47 ± 0.15

Variant | relative integration efficiency (log2) [1] | relative integration efficiency (log2) [2]
ATAATTGATATTGC | -0.135 ± 0.017 | 1.11 ± 0.1
GCAATTGATATTGC | -0.508 ± 0.047 | 2.25 ± 0.12
ATTTAACTATAACG C14G | -0.937 ± 0.17 | 1.76 ± 0.15
TAAATTGATATTGC T6C | -1.81 ± 0.2 | -2.11 ± 0.46
TAAATTGATATTGC T6G | -6.66 ± 0.074 | -5.28 ± 0.39
TAAATTGATATTGC T45A | -0.307 ± 0.056 | -0.351 ± 0.41
TAAATTGATATTGC T45C | -0.0459 ± 0.091 | -0.285 ± 0.21
TAAATTGATATTGC T45G | -0.479 ± 0.082 | -0.522 ± 0.1
TAAATTGCGATTGC | -0.463 ± 0.06 | 1.51 ± 0.028
TAAATTGATTAACC | -0.157 ± 0.13 | 1.35 ± 0.077
TACCGGGATATTGC | -0.561 ± 0.028 | 2.282 ± 0.0082
ATTTAACTATAACG A47C | -0.686 ± 0.38 | 2.63 ± 0.064
ATTTAACTATAACG A47T | -1.17 ± 0.26 | 1.84 ± 0.026
ATTTAACTATAACG A47G | -0.679 ± 0.11 | 2.25 ± 0.039
TAACGTGATATTGC | -0.0871 ± 0.004 | 0.67 ± 0.2
ATTTAACTATAACG C34G | -1.76 ± 0.18 | 1.73 ± 0.16
ATTTAACTATAACG C34A | -1.12 ± 0.27 | 2.11 ± 0.056
TAAATTTCTATTGC | -0.55 ± 0.13 | 2.4 ± 0.28
